Assay results from PMC9714796.

Target: TGF-βRII-Fc (muTGFbRII-mFc) (mouse (from the printed name muTGFbRII-mFc)) (UniProt Q62312)
Experiment: SPR; Biacore T100; TGF-βRII-Fc captured (~50 RU) by an anti-mouse Fc antibody amine-coupled to a CM5 chip; TGF-β2 injected at 0.04-90 nM (0.12-90 nM used for the fit); HBS-EP with 350 mM NaCl and 0.5 mg/mL BSA; steady-state affinity model

Sequence of TGF-βRII-Fc (muTGFbRII-mFc) (mouse (from the printed name muTGFbRII-mFc)) (Q62312 24-166): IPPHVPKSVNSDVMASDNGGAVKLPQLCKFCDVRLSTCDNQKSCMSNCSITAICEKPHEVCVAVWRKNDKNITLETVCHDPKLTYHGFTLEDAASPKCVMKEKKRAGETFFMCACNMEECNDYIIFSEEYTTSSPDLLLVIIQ

Kd: 11.6 nM
Substance: Transforming growth factor-β2 (TGF-β2) (ligand)
